Consider 30 sequences from the supplement of paper PMC9170038.

This data set concerns MS2 coat protein. In words: apparent KD of MS2 coat protein; designed switch direction (-1 OFF switch, 1 ON switch): -1; higher = weaker reporter binding. A digest of the protocol:
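Designed RNA switches with common flanks were transcribed on Illumina chips by stalled E. coli RNA polymerase and titrated with SNAP-549-labelled MS2 coat protein, from 0.7 or 1.5 nM doubling to 3 µM, in Tris-HCl pH 7.5 buffer with KCl, MgCl2, BSA, DTT, tRNA and Tween-20. Steps lasted 0.8–1.5 h (lowest) to 10–20 min (highest). Titrations ran without input, with 200 uM small-molecule ligand, or with an oligonucleotide input. Normalised cluster fluorescence was curve-fitted, and apparent KD is the per-design median over clusters.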

[1] abbreviates: input ligand: microRNA oligo, concentration not stated.
[2] abbreviates: Eterna round: R95, input ligand: microRNA oligo, concentration not stated.
[3] abbreviates: Eterna round: R95, input ligand: FMN 200 uM.
[4] abbreviates: Eterna round: R95, input ligand: none.

With “AAUAACAAGCCGAUCCUCCACAUGAGGAUCACCCAUGUGCUCGUCUUGUAAAGUACUAUCACGAAAGUGAUAGUACA (Eterna round: R97, puzzle: Sensor, turn-off variant 1)”, the “apparent KD of MS2 coat protein” value was 39.2 nM (input ligand: FMN 200 uM) and 44 nM (input ligand: none).

For the sequence “ACCUCACAUGAGGAUCACCCAUGUCAGGAUAUCUAAUAUUGUAGCGUUCCCGACGCUAAGAGAAGGGACAUUAA [EX1 #31] (Eterna round: R97, puzzle: Exclusion 1)”, the “apparent KD of MS2 coat protein” value (input ligand: FMN 200 uM) came to 19.5 nM and the “apparent KD of MS2 coat protein” value (input ligand: none) was determined as 16.5 nM.

As to “AAAAGAAAACGAGGAUAUGCGCGUAACGUACAUCCUCUAGACAUGAGGAUCACCCAUGUAGCGCAGCAGAAGGCGUAAAAGAAA [Orises] (Eterna round: R96, puzzle: Exclusion NG 2)”, the “apparent KD of MS2 coat protein” value (input ligand: FMN 200 uM) stood at 724 nM, the “apparent KD of MS2 coat protein” value under setting [1] is 75 nM and the “apparent KD of MS2 coat protein” value (input ligand: none) is 84.3 nM.

For the sequence “UGGCAAGUAGGAUAUUGGGUGUGGGACAUGAGGAUCACCCAUGUGAUCACUCAAUCUCUCCGAGAAGGGCUAAGAA [Araes] (puzzle: Exclusion 5)”, the “apparent KD of MS2 coat protein” value under setting [2] turned out to be 14 nM.

On to “UCGGCGCGAGGAUAUACGUUUGCGCUUUUUCGUUUUUGUGUACAUGAGGAUCACCCAUGUAGAAGGCGCGCCGC [Apr-15 SS2-18] (puzzle: Exclusion 2)”, for which, under setting [2], the “apparent KD of MS2 coat protein” value was 14.9 nM.

Consider “UGUACGAUGCGUGCUGACAUGCGUCGUGCAGCAGGUUUUACAUGAGGAUCACCCAUGUCCUCACUUGCUCGUCUUGU (puzzle: Sensor v3, turn-off variant 2)”, for which the “apparent KD of MS2 coat protein” value is, setting by setting: under setting [3], 257 nM; under setting [2], 187 nM; under setting [4], 279 nM.

For “AAAGGGUCAGGAUAUCCUGUGAAGAAGAAGUUGUUGUCGCGGGAGAAGGGACAUGAGGAUCACCCAUGUAGAGC [A Simple Submission] (Eterna round: R97, puzzle: Exclusion 4)”, the “apparent KD of MS2 coat protein” value by setting is: (input ligand: FMN 200 uM) 52.9 nM; (input ligand: none) 53.6 nM.

Consider “CGCCAAAGGAAGGAUAUGCUAGACGAAAGUCUAGCAGAAGGUCCUACAUGAGGAUCACCCAUGUGUCCUAGGCG [Mat - Exclusion 6 - Eli Mod - D10] (Eterna round: R97, puzzle: Exclusion 6)”, for which the “apparent KD of MS2 coat protein” value was determined as 49.1 nM (input ligand: FMN 200 uM) and 46.1 nM (input ligand: none).

As to “AUAUUACAUGAGGAUCACCCAUGUGAGGAUAUGGAGCGAGACUGUCCUGUCGCGUACACCAGAAGGCGCGGGCG [1st #53] (Eterna round: R97, puzzle: Exclusion 1)”, the “apparent KD of MS2 coat protein” value was 27.5 nM (input ligand: FMN 200 uM) and 31 nM (input ligand: none).

Turning to “AAUAAGCGAGGAUAUGCGGGCGGGUGCGGCCAGCCGAUGUGACAUGAGGAUCACCCAUGUAGAAGGCGCAAUAA [Excls2-VI] (puzzle: Exclusion 2)”, the “apparent KD of MS2 coat protein” value reads like this: under setting [3], 15.9 nM; under setting [2], 11.4 nM; under setting [4], 10.7 nM.

Take “ACAAGCUUUUUCGUGGGUGACAUGAGGAUCACCCAUGUUUGCCGCGUCUUGUCGUCGUGGACCUGUGGUCCAUGACG [Small mod of -44.6, -64.9 by Sellena] (Eterna round: R97, puzzle: Sensor, turn-off variant 1)”: the “apparent KD of MS2 coat protein” value (input ligand: FMN 200 uM) stood at 137 nM and the “apparent KD of MS2 coat protein” value (input ligand: none) amounted to 153 nM.

With “AUAAUGUGAGGAUAUCAGUCGACUAGCCUCGGCUAGUCGACUGAGAAGGCACAUGAGGAUCACCCAUGUAGAUC [E4/17-A2] (Eterna round: R97, puzzle: Exclusion 4)”, the “apparent KD of MS2 coat protein” value is 75.8 nM (input ligand: FMN 200 uM) and 825 nM (input ligand: none).

For the sequence “GUGGUCCGAGGAUAUAUUAUGUGAUACAUGAGGAUCACCCAUGUUAUAUAAUGGAUGUUAGUAGAAGGCGGACUAC [Mat - Exclusion 5 - JL mod - D83] (puzzle: Exclusion 5)”, the “apparent KD of MS2 coat protein” value by setting is: under setting [3], 107 nM; under setting [2], 56 nM; under setting [4], 49.1 nM.

With “CCACUGUCAGGAUAUCGUGCAUAACGUUUACAUUAUAUGUGCGAGAAGGGACAUGAGGAUCACCCAUGUAAACG [Omei Ex4 A28PK1] (Eterna round: R97, puzzle: Exclusion 4)”, the “apparent KD of MS2 coat protein” value (input ligand: FMN 200 uM) amounted to 604 nM and the “apparent KD of MS2 coat protein” value (input ligand: none) came out at 566 nM.

Regarding “UGAUCUAGCGGAGGAUAUACAUGAGGAUCACCCAUGUAGUAGUCUGUACCGUAGUGCAGACUUGUGUAGAAGGCCGCUAGAUCU [JL ENG2 3.61] (Eterna round: R96, puzzle: Exclusion NG 2)”, the “apparent KD of MS2 coat protein” value is, setting by setting: (input ligand: FMN 200 uM) 15.8 nM; under setting [1], 10.8 nM; (input ligand: none) 14.1 nM.

On to “UAAAUUAUUGUAAGGAUAUCAGUCCCGAAAGGGACUGAGAAGGUACAUGAGGAUCACCCAUGUGAAAUAAGAAU [Mod of Zala 15 - Jieux - Brourd's Mod of Exclusion 4] (Eterna round: R97, puzzle: Brourd's mod of Exclusion 4)”, for which the “apparent KD of MS2 coat protein” value runs as follows: (input ligand: FMN 200 uM) 53.1 nM; (input ligand: none) 22.1 nM.

“CAGUACUGAGGAUAUACAUGAGGAUCACCCAUGUGUCCUAGCUAGGAUACUAGCAUUAGUAGAAGGCAGUACUG [Fiskers Ex 3 828 mod 7] (puzzle: Exclusion 3)”: the “apparent KD of MS2 coat protein” value under setting [2] turned out to be 19.8 nM.

Turning to “AUCGUGAAGAAGGAUAUGGGCCCGGUAAUACGACUAGAAGGUCUGACAUGAGGAUCACCCAUGUGAUACCAAAA [Arorquis] (puzzle: Exclusion 6)”, the “apparent KD of MS2 coat protein” value is, setting by setting: under setting [3], 32.2 nM; under setting [2], 33.3 nM; under setting [4], 32.5 nM.

As to “CGGCAUGUACAAGGAUAUCAGCACGAUUAGUGCUGAGAAGGUGUAACAUGAGGAUCACCCAUGUAGAUCAUUAACCGAUUAAUU [ENG1/9-A2] (Eterna round: R96, puzzle: Exclusion NG 1)”, the “apparent KD of MS2 coat protein” value runs as follows: (input ligand: FMN 200 uM) 145 nM; under setting [1], 64.3 nM; (input ligand: none) 60.7 nM.

In the case of “UGUUGGUACGUAGGAUAUCCACCAACAGGUGGAAGGAUAUGUACGCAGAAGGUUCGCCAACAGGCGGAGAAGGACGUGGUAACU [pwkr exNG2 2xF7 2xFMN.29] (Eterna round: R96, puzzle: Exclusion NG 2)”, the “apparent KD of MS2 coat protein” value runs as follows: (input ligand: FMN 200 uM) 34.6 nM; under setting [1], 73.8 nM; (input ligand: none) 169 nM.

As to “UUUAAUUUUUUUUUUUUACAAGCUUUUUGCUCGUCUUAUACAUGAGGAUCACCCAUGUGGGUAAAAGGUAAAUUAUC [JMF 63] (puzzle: Sensor v3, turn-off variant 2)”, the “apparent KD of MS2 coat protein” value by setting is: under setting [3], 15.3 nM; under setting [2], 32.8 nM; under setting [4], 17.3 nM.

Take “AAAUGACAUUAGGAUAUAUAACGCGGCUGCCGCAUAGAAGGGAUGACUUGAGGAUCACCCAAGUGACCCAAGGA [Arcere] (Eterna round: R97, puzzle: Exclusion 6)”: the “apparent KD of MS2 coat protein” value reads like this: (input ligand: FMN 200 uM) 28.2 nM; (input ligand: none) 30.8 nM.

For the sequence “GUGCAGCUAGGAUAUACCGAAUGGGCCGAGCCGAAAAUAUUACAUGAGGAUCACCCAUGUAGAAGGAGCCAAUU [Eternabot (Original) Solution 22] (Eterna round: R97, puzzle: Exclusion 2)”, the “apparent KD of MS2 coat protein” value amounted to 64.5 nM (input ligand: FMN 200 uM) and 34.7 nM (input ligand: none).

Turning to “CGUAUGUGAGGAUAUGACAAUGGUAUCUUCGGAUACCAUUGUCAGAAGGAACAUGAGGAUCACCCAUGUAGAUC (Eterna round: R96, puzzle: Exclusion 4)”, the “apparent KD of MS2 coat protein” value was 161 nM (input ligand: FMN 200 uM), 43.1 nM under setting [1] and 54.5 nM (input ligand: none).

For “CAAAAGGAAGGAUAUGAUAAGCAGGACAUGAGGAUCACCCAUGUGACUGCCUCGUGGACAUCAGAAGGUCCAGGAC [Erqureorle] (puzzle: Exclusion 5)”, the “apparent KD of MS2 coat protein” value under setting [3] is 43.2 nM, the “apparent KD of MS2 coat protein” value under setting [2] is 17.2 nM and the “apparent KD of MS2 coat protein” value under setting [4] is 13.8 nM.

“UCACCGCAAGGAUAUACUUGCGGUGAUGCUCGAAACUUUCUACUUGAGGAUCACCCAAGUAGAAGGUGCGGUGA [jl-ex2.4.68 ViennaUCT mod] (Eterna round: R97, puzzle: Exclusion 2)”: the “apparent KD of MS2 coat protein” value by setting is: (input ligand: FMN 200 uM) 12.1 nM; (input ligand: none) 13.1 nM.

Take “ACGAUGACCGAAAAGUGUUAACUGACAUGAGGAUCACCCAUGUAGGAUAUGGCUACGAAAAGUAGUCAGAAGGACAUGUCAUCA [Omei Exc(NG) 3 Av7] (Eterna round: R96, puzzle: Exclusion NG 3)”: the “apparent KD of MS2 coat protein” value is, setting by setting: (input ligand: FMN 200 uM) 17.8 nM; under setting [1], 13.1 nM; (input ligand: none) 17.5 nM.

“GGUCAGAUGGUAGGAUAUCCAUAUCGAGUGACCCUUUCAUAACAUGAGGAUCACCCAUGUCGGUGGGAGAAGGGCCGUACGGUG [salish99_ExNG02_R04_023] (Eterna round: R96, puzzle: Exclusion NG 2)”: the “apparent KD of MS2 coat protein” value is, setting by setting: (input ligand: FMN 200 uM) 39.5 nM; under setting [1], 41.2 nM; (input ligand: none) 48.8 nM.

Consider “AAACGGGUGUCCUCGUUUUCAACAUGAGGAUCACCCAUGUUCGAGGAUAUCCGAUAAGCUCUUCAGGAGAAGGCGAACAUAAAA [Eninenat] (Eterna round: R96, puzzle: Exclusion NG 3)”, for which the “apparent KD of MS2 coat protein” value was determined as 14.7 nM (input ligand: FMN 200 uM), 32.1 nM under setting [1] and 18.4 nM (input ligand: none).

As to “UCUCGCAGGCAAGGAUAUCCUACAUUGUUCUGGCCCGGGCAUGUUACAUGAGGAUCACCCAUGUGGGAGAAGGUGCGCCACGGC [Design 33] (Eterna round: R96, puzzle: Exclusion NG 2)”, the “apparent KD of MS2 coat protein” value was 196 nM (input ligand: FMN 200 uM), 175 nM under setting [1] and 100 nM (input ligand: none).
